Source: publication PMC6351565 (2019)
Where no end group is shown, it is not given here. [ ]: non-standard residue; d: D form. pT = C[C@@H](OP(=O)(O)O)[C@H](N)C(=O)O; pS = N[C@@H](COP(=O)(O)O)C(=O)O

T1: 14-3-3θ (human, UniProt P27348 1-245)
T1 chain: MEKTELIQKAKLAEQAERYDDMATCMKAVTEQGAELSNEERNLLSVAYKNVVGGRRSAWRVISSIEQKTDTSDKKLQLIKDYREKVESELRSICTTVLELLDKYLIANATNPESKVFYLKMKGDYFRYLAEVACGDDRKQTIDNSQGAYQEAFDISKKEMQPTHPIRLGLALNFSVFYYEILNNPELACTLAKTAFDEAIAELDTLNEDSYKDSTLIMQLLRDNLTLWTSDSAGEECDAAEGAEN

B1: Site 2 peptide (pT340) (peptide)
chain: Ac-LSDSYSN[pT]LPVRKS-NH2
SMILES: CC(=O)N[C@@H](CC(C)C)C(=O)N[C@@H](CO)C(=O)N[C@@H](CC(=O)O)C(=O)N[C@@H](CO)C(=O)N[C@@H](Cc1ccc(O)cc1)C(=O)N[C@@H](CO)C(=O)N[C@@H](CC(N)=O)C(=O)N[C@H](C(=O)N[C@@H](CC(C)C)C(=O)N1CCC[C@H]1C(=O)N[C@H](C(=O)N[C@@H](CCCNC(=N)N)C(=O)N[C@@H](CCCCN)C(=O)N[C@@H](CO)C(N)=O)C(C)C)[C@@H](C)OP(=O)(O)O
B2: Site 4 peptide (pS366) (peptide)
chain: Ac-TLPRSS[pS]MAAGLEK-NH2
SMILES: CSCC[C@H](NC(=O)[C@H](COP(=O)(O)O)NC(=O)[C@H](CO)NC(=O)[C@H](CO)NC(=O)[C@H](CCCNC(=N)N)NC(=O)[C@@H]1CCCN1C(=O)[C@H](CC(C)C)NC(=O)[C@@H](NC(C)=O)[C@@H](C)O)C(=O)N[C@@H](C)C(=O)N[C@@H](C)C(=O)NCC(=O)N[C@@H](CC(C)C)C(=O)N[C@@H](CCC(=O)O)C(=O)N[C@@H](CCCCN)C(N)=O
B3: Site 3 peptide (pT360) (peptide)
chain: Ac-ATTENK[pT]LPRSSS-NH2
SMILES: CC(=O)N[C@@H](C)C(=O)N[C@H](C(=O)N[C@H](C(=O)N[C@@H](CCC(=O)O)C(=O)N[C@@H](CC(N)=O)C(=O)N[C@@H](CCCCN)C(=O)N[C@H](C(=O)N[C@@H](CC(C)C)C(=O)N1CCC[C@H]1C(=O)N[C@@H](CCCNC(=N)N)C(=O)N[C@@H](CO)C(=O)N[C@@H](CO)C(=O)N[C@@H](CO)C(N)=O)[C@@H](C)OP(=O)(O)O)[C@@H](C)O)[C@@H](C)O

Biological target: T1, 14-3-3θ
Assay: ITC

Binder	Kd [µM]
AQPKSL[pS]PPQSQSKLSDSYSN[pT]LPVRKS [Sites 1,2 peptide (pS325/pT340)]	16.2
B1	5.5
B2	16.5
B3	15.5
